From US20110189154

T1: Tsa1 (S. cerevisiae 2-Cys peroxyredoxin), P34760
T1 chain: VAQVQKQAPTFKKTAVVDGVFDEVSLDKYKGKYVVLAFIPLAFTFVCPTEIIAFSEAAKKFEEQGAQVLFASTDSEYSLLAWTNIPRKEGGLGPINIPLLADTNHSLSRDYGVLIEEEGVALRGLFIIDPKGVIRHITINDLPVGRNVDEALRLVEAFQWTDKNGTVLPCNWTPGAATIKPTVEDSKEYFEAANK


Target: T1, Tsa1 (S. cerevisiae 2-Cys …)

Row | Protein | reduction of the Cys-SO2H form of Tsa1
1 | Srx1^Cys106S (S. cerevisiae Srx1 with Cys106 changed to serine) (protein) MSLQSNSVKPTEIPLSEIRRPLAPVLDPQKIDAMVATMKGIPTASKTCSLEQAEAAASAGELPPVDVLGVRVKGQTLYYAFGGCHRLQAYDRRARETQNAAFPVRSRVLPATPRQIRMYLGSSLDIE | the other cysteine mutants have no effect for Srx1^Cys106S
2 | Srx1^Cys48S (S. cerevisiae Srx1 with Cys48 changed to serine) (protein) MSLQSNSVKPTEIPLSEIRRPLAPVLDPQKIDAMVATMKGIPTASKTSSLEQAEAAASAGELPPVDVLGVRVKGQTLYYAFGGCHRLQAYDRRARETQNAAFPVRCRVLPATPRQIRMYLGSSLDIE | a minor effect for Srx1^Cys48S
